The values that follow come from article PMC6525239, “Hexameric NuMA:LGN structures promote multivalent interactions required for planar epithelial divisions” (Nature Communications, 2019).

Data set [1] deals with the molecule itself. Briefly: SEC-MALS; static light scattering (SLS) on a Viscotek GPCmax/TDA with two TSKgel G3000PWxl columns in series; 75 μl of purified sample at about 1.5–2 mg/ml. A general note: Size exclusion chromatography separates by hydrodynamic size, large species first.
For data set [2], the target named is LGN^TPR-ΔOLIGO (LGN^13–350) (human). The data set is described as above.
The target in a further data set is T1, LGN^1–350 (human).
T1 sequence (P81274 whole entry, looked up): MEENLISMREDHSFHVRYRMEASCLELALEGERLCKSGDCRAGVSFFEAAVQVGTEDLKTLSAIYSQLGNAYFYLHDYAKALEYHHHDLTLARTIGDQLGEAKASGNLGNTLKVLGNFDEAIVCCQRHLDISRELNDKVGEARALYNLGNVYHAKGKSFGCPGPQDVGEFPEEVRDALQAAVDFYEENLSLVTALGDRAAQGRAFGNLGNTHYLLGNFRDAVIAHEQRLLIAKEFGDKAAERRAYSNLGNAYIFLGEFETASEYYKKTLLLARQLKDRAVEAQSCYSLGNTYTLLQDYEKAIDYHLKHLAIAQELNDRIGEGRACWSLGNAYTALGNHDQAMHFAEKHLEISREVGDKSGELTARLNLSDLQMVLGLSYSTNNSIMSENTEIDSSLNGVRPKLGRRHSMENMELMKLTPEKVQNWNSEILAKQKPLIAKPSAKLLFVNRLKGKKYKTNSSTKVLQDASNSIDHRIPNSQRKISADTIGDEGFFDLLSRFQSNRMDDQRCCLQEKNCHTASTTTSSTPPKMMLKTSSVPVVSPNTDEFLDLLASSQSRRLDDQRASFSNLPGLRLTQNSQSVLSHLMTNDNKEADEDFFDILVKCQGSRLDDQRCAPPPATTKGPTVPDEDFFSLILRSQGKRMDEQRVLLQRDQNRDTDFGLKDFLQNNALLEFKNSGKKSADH
Nature of the data set: SEC + SEC-MALS; SEC and SLS assays on a battery of truncated LGN and NuMA mutants (Fig. 1c, d).

A further data set deals with T2, LGN^13–409 (human).
T2 sequence (P81274 whole entry, looked up): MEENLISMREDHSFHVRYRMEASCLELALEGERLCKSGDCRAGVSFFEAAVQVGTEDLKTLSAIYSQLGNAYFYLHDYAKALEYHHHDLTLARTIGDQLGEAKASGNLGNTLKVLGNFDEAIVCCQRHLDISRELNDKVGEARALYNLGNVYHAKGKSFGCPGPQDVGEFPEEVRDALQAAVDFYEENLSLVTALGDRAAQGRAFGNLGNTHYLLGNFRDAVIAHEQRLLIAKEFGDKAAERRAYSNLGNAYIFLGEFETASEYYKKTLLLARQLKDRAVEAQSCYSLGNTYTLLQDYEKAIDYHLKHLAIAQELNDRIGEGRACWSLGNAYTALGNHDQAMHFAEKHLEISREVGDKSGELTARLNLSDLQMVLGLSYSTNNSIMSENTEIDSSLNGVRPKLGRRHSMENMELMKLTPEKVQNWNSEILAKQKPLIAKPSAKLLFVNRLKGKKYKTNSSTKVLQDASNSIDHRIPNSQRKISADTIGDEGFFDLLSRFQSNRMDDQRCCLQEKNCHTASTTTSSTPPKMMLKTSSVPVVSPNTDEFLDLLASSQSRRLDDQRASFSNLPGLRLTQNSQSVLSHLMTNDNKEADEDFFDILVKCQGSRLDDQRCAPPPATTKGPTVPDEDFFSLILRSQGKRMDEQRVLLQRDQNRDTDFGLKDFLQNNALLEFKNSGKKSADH
The data set is described as above.

Another data set addresses T3, LGN^7–367 (human).
T3 sequence (P81274 whole entry, looked up): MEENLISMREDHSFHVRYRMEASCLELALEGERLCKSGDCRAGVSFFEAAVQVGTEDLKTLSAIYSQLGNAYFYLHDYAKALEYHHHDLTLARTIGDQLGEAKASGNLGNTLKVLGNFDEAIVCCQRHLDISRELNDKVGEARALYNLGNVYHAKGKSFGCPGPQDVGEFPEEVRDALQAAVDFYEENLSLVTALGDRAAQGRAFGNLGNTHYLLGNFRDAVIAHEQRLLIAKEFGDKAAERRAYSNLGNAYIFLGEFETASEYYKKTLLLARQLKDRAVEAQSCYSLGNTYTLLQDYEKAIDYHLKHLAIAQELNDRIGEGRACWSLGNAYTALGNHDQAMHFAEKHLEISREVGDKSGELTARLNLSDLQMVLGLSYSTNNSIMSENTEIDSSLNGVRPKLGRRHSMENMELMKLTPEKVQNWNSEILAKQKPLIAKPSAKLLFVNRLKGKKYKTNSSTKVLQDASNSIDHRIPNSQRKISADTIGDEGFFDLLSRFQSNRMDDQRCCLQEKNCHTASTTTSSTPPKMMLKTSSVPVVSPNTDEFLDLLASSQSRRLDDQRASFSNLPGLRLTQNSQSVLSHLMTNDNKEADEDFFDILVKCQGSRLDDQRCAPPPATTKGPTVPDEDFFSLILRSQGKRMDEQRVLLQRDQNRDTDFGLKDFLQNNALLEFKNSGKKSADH
Nature of the data set: SEC-MALS; static light scattering (SLS) on a Viscotek GPCmax/TDA with two TSKgel G3000PWxl columns in series; 75 μl of purified sample at about 1.5–2 mg/ml.

For data set [3], the target named is T4, LGN^1–409 (TPR domain of LGN) (human).
T4 sequence (P81274 whole entry, looked up): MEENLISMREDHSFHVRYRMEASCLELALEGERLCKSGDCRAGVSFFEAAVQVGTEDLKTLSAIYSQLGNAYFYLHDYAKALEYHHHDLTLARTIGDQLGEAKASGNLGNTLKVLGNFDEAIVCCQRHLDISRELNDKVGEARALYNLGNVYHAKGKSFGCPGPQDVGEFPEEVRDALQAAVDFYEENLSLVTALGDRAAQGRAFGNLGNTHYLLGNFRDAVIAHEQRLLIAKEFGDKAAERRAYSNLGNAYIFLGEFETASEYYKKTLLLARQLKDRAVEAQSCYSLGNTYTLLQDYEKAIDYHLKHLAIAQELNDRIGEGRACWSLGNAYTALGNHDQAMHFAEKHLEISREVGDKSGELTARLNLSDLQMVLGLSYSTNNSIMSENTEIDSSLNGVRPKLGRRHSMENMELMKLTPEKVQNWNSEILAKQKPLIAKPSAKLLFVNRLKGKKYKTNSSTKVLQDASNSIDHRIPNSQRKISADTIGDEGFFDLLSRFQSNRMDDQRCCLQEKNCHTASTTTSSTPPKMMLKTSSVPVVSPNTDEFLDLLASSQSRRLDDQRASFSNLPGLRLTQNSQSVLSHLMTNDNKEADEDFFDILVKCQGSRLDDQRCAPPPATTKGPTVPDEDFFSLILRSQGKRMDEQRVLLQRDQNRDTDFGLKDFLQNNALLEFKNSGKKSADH
Nature of the data set: SEC; analytical SEC, Superdex-200 Increase 3.2/300; LGN and NuMA variants mixed in equimolar amounts (20 μM; LGN^TPR:NuMA^PEPT 1:2); 20 mM Tris-HCl pH 8.0, 0.150 M NaCl, 5% glycerol, 1 mM DTT; fractions checked by SDS-PAGE.

The target in the next data set is αβ-tubulin hetero-dimers (UniProt P02554 1-445). Briefly: SEC; Superdex-200 Increase 3.2/300; 26 µM NuMA^2002–2115 and 20 µM αβ-tubulin hetero-dimers; GT buffer (80 mM PIPES pH 6.8, 1 mM MgCl2, 1 mM EGTA) with 60 mM NaCl and 1 mM DTT; Tris-Tricine-SDS-PAGE. Particulars: both partners purified.
Chain of αβ-tubulin hetero-dimers (P68363 whole entry, chain 1 of 2): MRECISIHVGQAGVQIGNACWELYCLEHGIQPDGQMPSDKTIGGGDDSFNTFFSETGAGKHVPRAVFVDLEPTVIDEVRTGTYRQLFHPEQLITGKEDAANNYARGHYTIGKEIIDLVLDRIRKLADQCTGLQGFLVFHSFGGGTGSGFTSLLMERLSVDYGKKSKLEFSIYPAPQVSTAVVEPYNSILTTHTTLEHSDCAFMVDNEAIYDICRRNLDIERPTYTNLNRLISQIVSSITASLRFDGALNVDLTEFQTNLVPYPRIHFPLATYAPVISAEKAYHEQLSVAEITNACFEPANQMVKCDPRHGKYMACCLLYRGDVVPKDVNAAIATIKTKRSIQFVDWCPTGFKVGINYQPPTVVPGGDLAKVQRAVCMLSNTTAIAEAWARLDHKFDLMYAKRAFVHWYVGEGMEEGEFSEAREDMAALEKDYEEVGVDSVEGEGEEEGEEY
Chain of αβ-tubulin hetero-dimers (P02554 whole entry, chain 2 of 2): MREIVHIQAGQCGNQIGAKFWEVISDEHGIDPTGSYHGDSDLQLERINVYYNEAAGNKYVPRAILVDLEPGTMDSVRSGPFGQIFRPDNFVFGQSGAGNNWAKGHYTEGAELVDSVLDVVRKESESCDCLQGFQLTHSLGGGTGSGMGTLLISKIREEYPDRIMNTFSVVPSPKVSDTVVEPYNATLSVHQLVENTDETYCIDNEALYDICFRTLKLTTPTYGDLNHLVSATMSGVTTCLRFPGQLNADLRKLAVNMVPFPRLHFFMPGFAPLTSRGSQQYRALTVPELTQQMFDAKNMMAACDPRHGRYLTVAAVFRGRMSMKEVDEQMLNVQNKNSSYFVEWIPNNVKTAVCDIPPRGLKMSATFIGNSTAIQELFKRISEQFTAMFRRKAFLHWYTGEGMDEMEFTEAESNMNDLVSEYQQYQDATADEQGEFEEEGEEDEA

B1: NuMA^1592–1694 (domain or fragment, human, UniProt Q14980 1592-1694, looked up)
chain: QLNELQAQLSQKEQAAEHYKLQMEKAKTHYDAKKQQNQELQEQLRSLEQLQKENKELRAEAERLGHELQQAGLKTKEAEQTCRHLTAQVRSLEAQVAHADQQL
notes: NuMA, human, residues 1592-1694 (C-terminal portion of the coiled coil); also called C-terminal part of the NuMA coiled-coil
B1: the stoichiometry N (commonly a count of units in the complex or per binding partner) in data set [1] was found to be 2.

B2: NuMA chimera (NuMA 1592–1694 joined to NuMA 1821–2001 by eight Thr-Gly-Ser repeats) (domain or fragment, human)
chain: QLNELQAQLSQKEQAAEHYKLQMEKAKTHYDAKKQQNQELQEQLRSLEQLQKENKELRAEAERLGHELQQAGLKTKEAEQTCRHLTAQVRSLEAQVAHADQQLTGSTGSTGSTGSTGSTGSTGSTGSKKLDVEEPDSANSSFYSTRSAPASQASLRATSSTQSLARLGSPDYGNSALLSLPGYRPTTRSSARRSQAGVSSGAPPGRNSFYMGTCQDEPEQLDDWNRIAELQQRNRVCPPHLKTCYPLESRPSLSLGTITDEEMKTGDPQETLRRASMQPIQIAEGTGITTRQQRKRVSLEPHQGPGTP
notes: NuMA, human, residues 1592-1694 (dimerizing coiled-coil); also called chimeric NuMA construct; source: E. coli BL21 Rosetta, purified (Ni HiTrap chelating, PreScission cleavage, Resource-Q, Superose-6)
Take B2: the “stoichiometry N” value in data set [1] stood at 2; in data set [2], 1.

B3: NuMA^1861–1928 (domain or fragment)
chain: GSPDYGNSALLSLPGYRPTTRSSARRSQAGVSSGAPPGRNSFYMGTCQDEPEQLDDWNRIAELQQRNR
B3: the stoichiometry N in the data set with LGN^1–350 (human), with LGN^13–409 (human) and with LGN^7–367 (human) was 1 throughout.
In data set [3], NSFYMGTCQDEPEQLDDWNRIAELQQRNR [NuMA^1900–1928] yielded a stoichiometry N of 1.

B4: NuMA^2002–2115 (domain or fragment, human, UniProt Q14980 2002-2115, looked up)
chain: ESKKATSCFPRPMTPRDRHEGRKQSTTEAQKKAAPASTKQADRRQSMAFSILNTPKKLGNSLLRRGASKKALSKASPNTRSGTRRSPRIATTTASAATAAAIGATPRAKGKAKH
For B4, the “stoichiometry N” value in the data set with αβ-tubulin hetero-dimers was found to be 1.
